Reference: publication PMC5727538, “Comprehensive analysis of the catalytic and structural properties of a mu-class glutathione s-transferase from Fasciola gigantica” (Scientific Reports, 2017)

Molecular target: the molecule itself
Test: SEC; Superdex 200 10/300 GL on AKTA-FPLC, 20 mM phosphate buffer pH 7.5, 150 mM NaCl, 0.3 mL/min; calibrated with molecular weight markers; elution at 15.4 mL, about 50 kDa

B1: mu-class glutathione S-transferase from Fasciola gigantica (FgGST1) (enzyme)
chain: MPATLGYWKLRGLAQPIRLLLEFVGEKYEEQIYERDDGEKWFSKKFELGLDLPNLPYYIDDKCKLTQSLAILRYIADKHGMIGSTPEERARVSMIEGAAVDLRQGLSRISYDPKFEQLKEGYLKDLPTTMKMWSDFLGKNLYLRGTSVSHVDFMVYEALDAIRYLEPHCLDHFPNLQQFMSRIEALPSIKAYMESNRFIKWPLNGWHAQFGGGDAPPSHEKK
  stoichiometry N: 2
